B1: 306VQIVYK311 hexapeptide (peptide)
peptide: Ac-VQIVYK-NH2
notes: also called amyloid motif; source: synthetic peptide (Genscript)

Biological target: the molecule itself
Experiment: ThT fluorescence aggregation assay; spontaneous self-assembly of disaggregated synthetic peptides, 200 µM, PBS, 25 µM ThT, room temperature, no inducer; the R2R3 peptides of Fig. 4 also looked at by TEM

Binding result, binds:
B1
Ac-DNIKHVSGGGSVQIVYK-NH2 (peptide, UniProt P10636-8 295-311, looked up, source: synthetic peptide (Genscript)) [R2R3-P301S peptide fragment]
Ac-DIKHVPGGGSVQIVYK-NH2 (peptide, UniProt P10636-8 295-311, looked up, source: synthetic peptide (Genscript)) [R2R3-N296Δ peptide fragment]
Ac-DNIKHVLGGGSVQIVYK-NH2 (peptide, UniProt P10636-8 295-311, looked up, source: synthetic peptide (Genscript)) [R2R3-P301L peptide fragment]
Ac-DNIKHIPGGGSVQIVYK-NH2 (peptide, UniProt P10636-8 295-311, looked up, source: synthetic peptide (Genscript)) [R2R3-V300I peptide fragment]
Ac-DNIKHVPGVGSVQIVYK-NH2 (peptide, UniProt P10636-8 295-311, looked up, source: synthetic peptide (Genscript)) [R2R3-G303V peptide fragment]
Ac-DNIKHVPGGGNVQIVYK-NH2 (peptide, UniProt P10636-8 295-311, looked up, source: synthetic peptide (Genscript)) [R2R3-S305N peptide fragment]

— paper PMC6555816, “Tau local structure shields an amyloid-forming motif and controls aggregation propensity” (Nature Communications, 2019)
